Tests used:
[1] = molecular target: iminobiotinylated bovine fetuin (bovine) (UniProt P12763)
[2] = molecular target: IgG-Sepharose (Pharmacia); test: IgG-Sepharose batch adsorption of conditioned medium, GalNAc-transferase activity assayed on the beads (Table 1B, Sepharose-IgG: applied 4914, flowthrough 214, bound 1853 units)

| Released activity (units) of GalNAc-transferase [1] | percent of applied activity bound [2] | Substance |
| --- | --- | --- |
| 8390 units |  | UDP-GalNAc: NeuAcα2,3Galβ-R β1,4-N-acetyl-galactosamine-transferase encoded by pCDM8-CT (full-length, wild type enzyme) |
| 9830 units | 37% | protein A-GalNAc-transferase fusion protein (pPROTA-CTc) (from UniProt P38507) (enzyme) |

Reference: US5691180
